The target of this assay is AEBP2 (shorter isoform) (human). The assay can be described thus: negative-stain EM 3D reconstruction with localisation of MBP and GFP tags; purified PRC2-AEBP2 complex mildly cross-linked with 0.015% glutaraldehyde, stained with 2% uranyl formate; random conical tilt and projection matching, 21 Å; tags located in reference-free 2D class averages.

Usually stoichiometry N stands for a count of units in the complex or per binding partner. On to “EED (from UniProt O75530 1-441) (natural protein)”, for which the stoichiometry N came out at 1.
On to “Ezh2 (from UniProt Q15910-2 1-751) (enzyme)”, for which the stoichiometry N was 1.

Source of the values: article PMC3482686.
